The target of series [1] is SUR2A nucleotide binding domain 2 (NBD2, G1301-K1546) (murine). The series is described as follows: SAXS.
Series [2] deals with the molecule itself. The series is described as follows: SAXS.

As for “SUR2A nucleotide binding domain 2 (NBD2, G1301-K1546) (domain or fragment)”, the stoichiometry N in series [1] was found to be 8.

B1: SUR2A nucleotide binding domain 1 (NBD1, D666-890) (domain or fragment, murine, UniProt P70170-1 666-890, looked up)
chain: DIAIKVTNGYFSWGSGLATLSNIDIRIPTGQLTMIVGQVGCGKSSLLLAILGEMQTLEGKVYWNNVNESEPSFEATRSRSRYSVAYAAQKPWLLNATVEENITFGSPFNRQRYKAVTDACSLQPDIDLLPFGDQTEIGERGINLSGGQRQRICVARALYQNTNIVFLDDPFSALDIHLSDHLMQEGILKFLQDDKRTVVLVTHKLQYLTHADWIIAMKDGSVLRE
Turning to B1, in series [2], the “stoichiometry N” value is 8.

As usually defined, the stoichiometry N is a count of units in the complex or per binding partner.

The values above are taken from PMC2818519 (Journal of structural biology, 2009).
